Source: PMC10046861, “Linker Length Drives Heterogeneity of Multivalent Complexes of Hub Protein LC8 and Transcription Factor ASCIZ” (Biomolecules, 2023)
Numbering of substitutions follows the chain as printed. Several values for one entry are separate records, joined by “and”; a condition that tells them apart may be missing. Equal entries are not always repeated.

B1: Drosophila LC8 (natural protein)
chain: MSDRKAVIKNADMSEEMQQDAVDCATQALEKYNIEKDIAAYIKKEFDKKYNPTWHCIVGRNFGSYVTHETRHFIYFYLGQVAILLFKSG
notes: LC8 hub protein (dynein light chain LC8) of Drosophila; folds as a homodimer; tag cleaved by TEV protease; also called LC8 dimer; source: E. coli Rosetta (DE3), purified (TALON, anion exchange, Superdex 75 gel filtration)
B2: QT3 (QT2–4 single-site variant, only motif QT3 intact) (domain or fragment)
chain: EVLAPLLRDIEAAAPDTRGDIGTMTDDFPEEQEPVAVGSHFHAYSETEPMFDLQTSAHMYAAACDDLFEEL
modifications: Anchor positions are not printed. They were deduced from 8-residue motifs ending in the anchor, linkers of 3 and 30 residues, and 9 residues after QT4; the wild-type letters must match the entry …
B3: Drosophila ASCIZ QT2–4 (residues 271–341) (domain or fragment, UniProt Q9VZU1 271-341, looked up)
chain: B2 chain with A12T, A13Q, A14T, A61T, A62Q, A63T
notes: also called wildtype QT2–4; intact QT2–4 construct; source: E. coli Rosetta (DE3), purified under denaturing conditions (TALON, anion exchange, gel filtration)

What was measured:
[1] = molecular target: QT2,4 (QT2–4 double-site variant, motifs QT2 and QT4 intact) (Drosophila) (UniProt Q9VZU1); test: native MS; native ESI-MS; LC8 mixed with double-site QT variant at 2:1 LC8:QT, overnight at 4 °C; 25 µM total protein and dilutions to 500 nM; 200 mM ammonium acetate, pH 7.4; conditions: scale: LC8 chains per variant chain
[2] = molecular target: QT3,4 (QT2–4 double-site variant, motifs QT3 and QT4 intact) (Drosophila) (UniProt Q9VZU1); test: as above; conditions: scale: LC8 chains per variant chain
[3] = molecular target: QT2,3 (QT2–4 double-site variant, motifs QT2 and QT3 intact) (Drosophila) (UniProt Q9VZU1); test: as above; conditions: scale: LC8 chains per variant chain
[4] = molecular target: QT3,4 (QT2–4 double-site variant, motifs QT3 and QT4 intact) (Drosophila) (UniProt Q9VZU1); test: ITC; LC8 (400–500 µM) in the syringe titrated into QT variant (20–50 µM) in the cell; 25 °C; 50 mM sodium phosphate, 50 mM NaCl, 1 mM sodium azide, 5 mM β-mercaptoethanol, pH 7.5; single set of sites fit, for double-site variants also sequential binding sites (SBS) and two sets of sites (TSS) fits
[5] = molecular target: QT2,3 (QT2–4 double-site variant, motifs QT2 and QT3 intact) (Drosophila) (UniProt Q9VZU1); test: as above
[6] = molecular target: the molecule itself; test: native MS; native ESI-MS of the individual proteins (25 µM; dilution series); 200 mM ammonium acetate, pH 7.4
[7] = molecular target: B3; test: SEC-MALS; 90 µM QT2–4 or QT4–6 mixed with 300 µM LC8 (1:3.3); Superdex200 10/300 GL, room temperature; 50 mM sodium phosphate, 0.4 M NaCl, 1 mM NaN3, 5 mM β-mercaptoethanol, pH 7.5; conditions: both partners purified
[8] = molecular target: QT2,4 (QT2–4 double-site variant, motifs QT2 and QT4 intact) (Drosophila) (UniProt Q9VZU1); test: ITC; LC8 (400–500 µM) in the syringe titrated into QT variant (20–50 µM) in the cell; 25 °C; 50 mM sodium phosphate, 50 mM NaCl, 1 mM sodium azide, 5 mM β-mercaptoethanol, pH 7.5; single set of sites fit, for double-site variants also sequential binding sites (SBS) and two sets of sites (TSS) fits
[9] = molecular target: QT2 (QT2–4 single-site variant, only motif QT2 intact) (Drosophila) (UniProt Q9VZU1); test: as above
[10] = molecular target: QT4 (QT2–4 single-site variant, only motif QT4 intact) (Drosophila) (UniProt Q9VZU1); test: as above
Drosophila LC8 [11] = molecular target: B1; test: as above; conditions: both partners purified
Drosophila LC8 [12] = molecular target: B1; test: negative-stain electron microscopy; images of a QT2–4/LC8 mixture; strings of LC8 dimers counted in 50 images; conditions: both partners purified

“Drosophila LC8 (from UniProt Q24117 1-89) (natural protein)” was tested, and the stoichiometry N [1] was 2 (2×) and 4 and 3, the stoichiometry N [2] was 2 (2×) and 4 and 3 and the stoichiometry N [3] was 2 (2×) and 4 and 3. It also gave a N of site QT3, two sets of sites fit [4] of 0.2, a fold stabilisation of the stronger site (QT2) against its single-site variant, two sets of sites fit [5] of 7 fold and a fold stabilisation of the weaker site (QT3) against its single-site variant, two sets of sites fit [5] of 2 fold.

For B1, the “stoichiometry N” value [6] was 2, the “stoichiometry N” value [7] was 1 LC8 chains per QT2–4 chain (2 QT2–4 chains, 2 LC8 chains) and the N of site QT4, two sets of sites fit [8] was 0.6. The fold increase in affinity of site QT4 against the single-site variant QT4, sequential binding sites fit [8] was 5 fold, the Kd [9] was 9.3 µM and the dH [9] was -10.7 kcal/mol. For the same molecule, the Kd of the second (weaker) site, QT3, sequential binding sites fit [4] was 40 µM, the Kd of the second (weaker) site, QT3, two sets of sites fit [4] was 25.7 µM and the Kd [10] was 15 µM. For the same molecule, the dH [10] was -16.1 kcal/mol.

With B2 the Kd (Drosophila LC8 [11]) was 36 µM.

B3: binds (Drosophila LC8 [12]).
